US20240317834A1, “COMPOSITIONS AND METHODS FOR NEUROLOGICAL DISEASES” (CODA BIOTHERAPEUTICS, INC., priority 2020, published 2024)

Tests used:
Lenti-X 293T cells = assay: YFP fluorescence quenching anion reporter plate reader assay of engineered receptors stimulated with acetylcholine or a non-native ligand; format: cell-based
How it was run: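 Lenti-X 293T cells carrying a YFP anion reporter were transiently transfected with channel DNA and assayed the next day in HEPES-buffered ECS at pH 7.2. Ligand (acetylcholine or non-native ligand) was added in NaI-substituted ECS. Percent quench was the mean of the last 10 s relative to the 15 s pre-addition baseline.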

rat DRG neurons = assay: Rheobase shift and evoked action potentials in rat DRG neurons (current clamp); format: cell-based
Procedure: Using whole cell manual patch clamp electrophysiology in HEK293 cells, rat DRG neurons and rat hippocampal neurons, the EC50 of the various engineered receptors disclosed herein to Ach and non-native ligands was measured using the Hill equation with peak current measurements from escalating doses of ligand. The rheobase shift was also measured in rat DRG neurons, which reflects the efficacy of the receptors. To calculate the rheobase, first, the amount of current that can produce an action potential was determined. Then the ligand was added, followed by a step wise increase in the current injected up to 700 pA.
For manual patch clamp experiments, Cells plated on coverslips were visualized at 10× and 40× on an inverted fluorescence microscope (Olympus). Recordings were made with an Axopatch 200B amplifier and Digidata 1550B (Molecular Devices) at RT using 3-6 MOhm glass patch electrodes (Sutter, BF150-86-10). Unless otherwise stated, recordings were made in extracellular solution (ECS) containing: 140 mM sodium chloride, 4 mM potassium chloride, 1 mM magnesium chloride, 2 mM calcium chloride, 10 mM HEPES, and 10 mM D-(+)-glucose (pH=7.3 with sodium hydroxide, osmolarity=305−315 mOsm). An 8-line reservoir (AutoMate Scientific) in combination with an 8-channel zero-dead-volume perfusion pencil (AutoMate Scientific) was used for perfusion. Data was acquired using pClamp software (Molecular Devices). Traces were either analyzed in Clampfit (Molecular Devices) or using custom Python code. Plotting and statistics were performed in GraphPad Prism.
DRG rheobase experiments were performed in current clamp mode using a potassium-based internal solution containing: 100 mM potassium D-gluconate, 28 mM potassium chloride, 1 mM magnesium chloride hexahydrate, 5 mM magnesium ATP, 10 mM HEPES, and 0.5 mM EGTA (pH=7.2 with potassium hydroxide, osmolarity=290-295 mOsm, calculated liquid junction potential=−13.5 mV). To measure DRG input resistance and rheobase, 500 ms current steps (−200 pA to 700 pA) were applied the membrane in the presence and absence of a compound. No holding current was applied to the membrane for cells included in the final datasets. Data were acquired at 10 kHz, with Bessel filter at 2 kHz and series resistance compensation at 100%. Rheobase was defined as the smallest depolarizing current injection required to cause an action potential to fire in the cell. In a subset of cells, the rheobase was ambiguous, since the action potential appeared to be graded in amplitude. In these cases, a […] of the trace clarified the rheobase. Input resistance was measured from the negative current injections, calculated as the difference in membrane potential at steady state divided by the current injection amplitude and then averaged across the four negative current steps for each recording. Resting membrane potential was measured from the first 100 ms of each sweep, averaged for each recording, and corrected for liquid junction potential. One-way ANOVA with multiple comparisons was used to test for significance of difference in rheobase and input resistance between baseline, drug, and wash conditions.

B1: CODA1025: engineered chimeric LGIC receptor, R101F, L131G in SEQ ID NO: 33 (protein)
chain: MRCSPGGVWLALAASLLHVSLQGEFQRKLYKELVKNYNPLERPVANDSQPLTVYFSLSLLQIMDVDEKNQVLTTNIWLQMSWTDHYLQWNVSEYPGVKTVFFPDGQIWKPDILLYNSADERFDATFHTNVGVNSSGHCQYLPPGIFKSSCPMDLKNFPMDVQTCKLKFGSWSYGGWSLDLQMQEADISGYIPNGEWDLVGIPGKRSERFYECCKEPYPDVTFTVTMRRRMGYYLIQMYIPSLLIVILSWISFWINMDAAPARVGLGITTVLTMTTQSSGSRASLPKVSYVKAIDIWMAVCLLFVFSALLEYAAVNFVSRQHKELLRFRRKRRHHKSPMLNLFQEDEAGEGRFNFSAYGMGPACLQAKDGISVKGANNSNTTNPPPAPSKSPEEMRKLFIQRAKKIDKISRIGFPMAFLIFNMFYWIIYKIVRREDVHNQ
modifications: synthetic sequence of chimeric LGIC
YFP fluorescence quenching using CNL001 (Lenti-X 293T cells; 1 nM CNL001, first column): −18.527% | YFP fluorescence quenching using CNL001 (Lenti-X 293T cells; 1 nM CNL001, second column): −21.577% | YFP fluorescence quenching using TC-5619/Bradanicline (Lenti-X 293T cells; 1 nM brd): −10.61% | YFP fluorescence quenching using TC-5619/Bradanicline (Lenti-X 293T cells; 3 nM brd): 2.63% | YFP fluorescence quenching using Varenicline (Lenti-X 293T cells; 3 nM var, first column): 48.074 | YFP fluorescence quenching using Varenicline (Lenti-X 293T cells; 3 nM var, second column): 60.978 | YFP fluorescence quenching using CNL001 (Lenti-X 293T cells; 10 nM CNL001, first column): 14.063% | YFP fluorescence quenching using CNL001 (Lenti-X 293T cells; 10 nM CNL001, second column): 49.818% | YFP fluorescence quenching using TC-5619/Bradanicline (Lenti-X 293T cells; 10 nM brd): 17.71% | YFP fluorescence quenching using TC-5619/Bradanicline (Lenti-X 293T cells; 30 nM brd): 68.48% | YFP fluorescence quenching using Facinicline (Lenti-X 293T cells; 30 nM fac): −8.99 | YFP fluorescence quenching using Varenicline (Lenti-X 293T cells; 30 nM var, first column): 70.023 | YFP fluorescence quenching using Varenicline (Lenti-X 293T cells; 30 nM var, second column): 69.433 | YFP fluorescence quenching using CNL001 (Lenti-X 293T cells; 50 nM CNL001, first column): 77.765% | YFP fluorescence quenching using CNL001 (Lenti-X 293T cells; 50 nM CNL001, second column): 79.23% | YFP fluorescence quenching using ABT-126 (Lenti-X 293T cells; 50 nM abt): −11.53% | YFP fluorescence quenching using CNL001 (Lenti-X 293T cells; 100 nM CNL001, first column): 80.544% | YFP fluorescence quenching using CNL001 (Lenti-X 293T cells; 100 nM CNL001, second column): 80.695% | YFP fluorescence quenching using CNL002 (Lenti-X 293T cells; 100 nM CNL002): 12.48% | YFP fluorescence quenching using ABT-126 (Lenti-X 293T cells; 100 nM abt): −7.61% | YFP fluorescence quenching using AZD-0328 (Lenti-X 293T cells; 100 nM azd0328): 6.26% | YFP fluorescence quenching using ABT-126 (Lenti-X 293T cells; 300 nM abt): 6.55% | YFP fluorescence quenching using AZD-0328 (Lenti-X 293T cells; 300 nM azd0328): 37.98% | YFP fluorescence quenching using TC-5619/Bradanicline (Lenti-X 293T cells; 300 nM brd): 75.12% | YFP fluorescence quenching using Facinicline (Lenti-X 293T cells; 300 nM fac): 10.21 | YFP fluorescence quenching using Varenicline (Lenti-X 293T cells; 300 nM var, first column): 78.989 | YFP fluorescence quenching using Varenicline (Lenti-X 293T cells; 300 nM var, second column): 79.21 | YFP fluorescence quenching using Varenicline (Lenti-X 293T cells; 500 nM var, first column): 79.212 | YFP fluorescence quenching using Varenicline (Lenti-X 293T cells; 500 nM var, second column): 79.771 | YFP fluorescence quenching using CNL001 (Lenti-X 293T cells; 1 uM CNL001, first column): 81.191% | YFP fluorescence quenching using CNL001 (Lenti-X 293T cells; 1 uM CNL001, second column): 82.385% | YFP fluorescence quenching using CNL002 (Lenti-X 293T cells; 1 uM CNL002): 46.04% | YFP fluorescence quenching using ABT-126 (Lenti-X 293T cells; 1 uM abt): 25.08% | YFP fluorescence quenching using TC-6987 (Lenti-X 293T cells; 1 uM tc6987): −13.32 | YFP fluorescence quenching using Varenicline (Lenti-X 293T cells; 1 uM var, first column): 79.538 | YFP fluorescence quenching using Varenicline (Lenti-X 293T cells; 1 uM var, second column): 80.577 | YFP fluorescence quenching using TC-6987 (Lenti-X 293T cells; 10 uM tc6987): 43.71 | YFP fluorescence quenching using CNL002 (Lenti-X 293T cells; 30 uM CNL002): 39.82% | YFP fluorescence quenching using AZD-0328 (Lenti-X 293T cells; 30 uM azd0328): 79.31% | YFP fluorescence quenching using Facinicline (Lenti-X 293T cells; 30 uM fac): 78.24 | YFP fluorescence quenching using TC-6987 (Lenti-X 293T cells; 500 uM tc6987): 53.98 | percent quench of YFP fluorescence, 30 nM TC-6683 (Lenti-X 293T cells; TC-6683 30 nM): −1.645% | percent quench of YFP fluorescence, 300 nM TC-6683 (Lenti-X 293T cells; TC-6683 300 nM): 3.043% | percent quench of YFP fluorescence, 3 uM TC-6683 (Lenti-X 293T cells; TC-6683 3 uM): 0.082% | percent quench of YFP fluorescence, 30 uM TC-6683 (Lenti-X 293T cells; TC-6683 30 uM): 2.449% | percent quench of YFP fluorescence, 100 uM TC-6683 (Lenti-X 293T cells; TC-6683 100 uM): 10.437% | percent quench of YFP fluorescence, 10 uM ach (Lenti-X 293T cells; acetylcholine 10 uM): 12.57% | percent quench of YFP fluorescence, 50 uM ach (Lenti-X 293T cells; acetylcholine 50 uM): −3.46% | percent quench of YFP fluorescence, 100 uM ach (Lenti-X 293T cells; acetylcholine 100 uM): 12.65% | percent quench of YFP fluorescence, 300 uM ach (Lenti-X 293T cells; acetylcholine 300 uM): −6.96% | percent quench of YFP fluorescence, 500 uM ach (Lenti-X 293T cells; acetylcholine 500 uM): −6.77% | percent quench of YFP fluorescence, 1 mM ach (Lenti-X 293T cells; acetylcholine 1 mM): 19.42% | percent quench of YFP fluorescence, 3 mM ach (Lenti-X 293T cells; acetylcholine 3 mM): 65.06% | Rheobase Shift; Rat DRG Neurons, +TC-5619 @ EC90 (rat DRG neurons; +TC-5619 @ EC90): 560 ± 72 pA | Rheobase Shift; Rat DRG Neurons, Baseline (rat DRG neurons; Baseline, no ligand): 140 ± 19 pA
